# Measurements as given in the supplement of paper PMC7877785.
# ± gives the uncertainty stated by the source.
# Test: self-splicing fitness, log relative to wild type (ln ratio); higher = more splicing; Tetrahymena group I intron in knt gene, E. coli kanamycin selection, DiMSum; sequences stand for … in CUCUCU…GGAGGGAAAAGUUAUCAGGCAUGCACCUGGUAGCUAGUCUUUAAACCAAUAGAUUGCAUCGGUUUAAAAGGCAAGACCGUCAAAUUGCGGGAAAGGGGUCAACAGCCGUUCAGUACCAAGUCUCAGGGGAAACUUUGAGAUGGCCUUGCAAAGGGUAUGGUAAUAAGCUGACGGACAUGGUCCUAACCACGCAGCCAAGUCCUAAGUCAACAGAUCUUCUGUUGAUAUGGAUGCAGUUCACAGACUAAAUGUCGGUCGGGGAAGAUGUAUUCUUCUCAUAAGAUAUAGUCGGACCUCUCCUUAAUGGGAGCUAGCGGAUGAAGUGAUGCAACACUGGAGCCGCUGGGAACUAAUUUGUAUGCGAAAGUAUAUUGAUUAGUUUUGGAGUACUCGUGGUCG
# Outline: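 Library with all eight P1ex-region intron nucleotides randomised, intron inside the knt kanamycin-resistance gene on pET-22b(+), in E. coli BL21(DE3). Cells grew overnight at 37°C or 30°C on LB agar with or without 25 μg/mL kanamycin (plus 100 μg/mL carbenicillin, 50 μM IPTG, 0.2% rhamnose), in six replicate transformations. Pooled colonies were amplicon-sequenced on Illumina HiSeq 2500. DiMSum fitness is the error-weighted combination of wild-type-normalised replicate fold changes, kanamycin versus none.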
Sequence,self-splicing fitness (ln) (30 °C),self-splicing fitness (ln) (37 °C)
ACUGAGCAAUAUUACGCGAA,-3.01 ± 0.33,-2.77 ± 0.36
ACUGAGCAAUAUUACGCGAG,-2.27 ± 0.1,-1.11 ± 0.096
ACUGAGCAAUAUUACGCGCC,-2.73 ± 0.33,–
ACUGAGCAAUAUUACGCUCC,-2.62 ± 0.45,-1.18 ± 0.27
ACUGAGCAAUAUUACGCUGG,-3.54 ± 0.2,-1.4 ± 0.2
ACUGAGCAAUAUUACGGAGG,-2.97 ± 0.18,-2.76 ± 0.25
ACUGAGCAAUAUUACGGCUC,–,-1.73 ± 0.48
ACUGAGCAAUAUUACGGGAG,-3.29 ± 0.2,-2.74 ± 0.2
ACUGAGCAAUAUUACGGUAA,-2.81 ± 0.27,-2.8 ± 0.34
ACUGAGCAAUAUUACGGUCC,–,-2.26 ± 0.33
ACUGAGCAAUAUUACGUACU,-2.16 ± 0.19,-1.42 ± 0.19
ACUGAGCAAUAUUACGUGCC,-2.31 ± 0.23,–
ACUGAGCAAUAUUACGUUCC,-3.65 ± 0.35,-2.52 ± 0.24
ACUGAGCAAUAUUACGUUCG,-2.2 ± 0.15,-0.355 ± 0.12
ACUGAGCAAUAUUACGUUGG,-4.04 ± 0.2,-2.17 ± 0.18
ACUGAGCAAUAUUACGUUGU,-3.71 ± 0.26,-1.53 ± 0.14
ACUGAGCAAUAUUACGUUUA,-2.52 ± 0.2,-3.08 ± 0.24
ACUUAGCAAUAUUACGAAAA,-2.79 ± 0.26,-2.01 ± 0.27
ACUUAGCAAUAUUACGACAU,-0.756 ± 0.012,-0.251 ± 0.032
ACUUAGCAAUAUUACGACGC,-0.152 ± 0.066,-0.0939 ± 0.072
ACUUAGCAAUAUUACGAGAG,-2.21 ± 0.12,-0.741 ± 0.11
ACUUAGCAAUAUUACGAUAG,-2.71 ± 0.12,-1.7 ± 0.16
ACUUAGCAAUAUUACGCAAA,-3.03 ± 0.41,-1.24 ± 0.25
ACUUAGCAAUAUUACGCACA,-1.26 ± 0.12,-1.02 ± 0.12
ACUUAGCAAUAUUACGCAGU,-3.83 ± 0.35,-2.17 ± 0.21

Sequence,self-splicing fitness (ln) (30 °C),self-splicing fitness (ln) (37 °C)
ACUUAGCAAUAUUACGCGAG,-1.93 ± 0.15,-1.76 ± 0.13
ACUUAGCAAUAUUACGCGGC,-2.71 ± 0.25,-1.12 ± 0.23
ACUUAGCAAUAUUACGGAGU,-3.58 ± 0.47,-3.1 ± 0.3
ACUUAGCAAUAUUACGGCGU,-0.204 ± 0.088,0.491 ± 0.13
ACUUAGCAAUAUUACGGCUA,-2.6 ± 0.2,-0.214 ± 0.1
ACUUAGCAAUAUUACGGGUA,-1.14 ± 0.11,-1.54 ± 0.14
ACUUAGCAAUAUUACGGUAA,-2.66 ± 0.15,-1.42 ± 0.14
ACUUAGCAAUAUUACGGUGG,-3.72 ± 0.3,–
ACUUAGCAAUAUUACGUAUA,-3.22 ± 0.14,-2.41 ± 0.16
ACUUAGCAAUAUUACGUAUG,-3.35 ± 0.22,-2.2 ± 0.16
ACUUAGCAAUAUUACGUCGA,-2.06 ± 0.16,-1.23 ± 0.16
ACUUAGCAAUAUUACGUGAA,-2.94 ± 0.15,-1.5 ± 0.12
ACUUAGCAAUAUUACGUGCG,-1.29 ± 0.1,0.152 ± 0.15
ACUUAGCAAUAUUACGUUUU,-3.39 ± 0.12,-1.93 ± 0.1
AGAAAGCAAUAUUACGAACA,-0.534 ± 0.16,-0.288 ± 0.16
AGAAAGCAAUAUUACGAACU,-0.0259 ± 0.096,0.00874 ± 0.12
AGAAAGCAAUAUUACGAAGG,-3.59 ± 0.25,-1.74 ± 0.2
AGAAAGCAAUAUUACGACAC,-0.194 ± 0.11,-0.75 ± 0.13
AGAAAGCAAUAUUACGAGGC,-3.15 ± 0.42,-2.66 ± 0.41
AGAAAGCAAUAUUACGAGGU,-3.59 ± 0.26,-1.93 ± 0.23
AGAAAGCAAUAUUACGCAGG,-2.89 ± 0.15,-1.4 ± 0.15
AGAAAGCAAUAUUACGCAUU,-2.49 ± 0.15,-2.06 ± 0.22
AGAAAGCAAUAUUACGCCAU,-3.16 ± 0.2,-2.21 ± 0.2
AGAAAGCAAUAUUACGCCGG,-1.43 ± 0.25,-1.62 ± 0.24
AGAAAGCAAUAUUACGCCUG,-0.436 ± 0.11,-0.62 ± 0.14

Sequence,self-splicing fitness (ln) (30 °C),self-splicing fitness (ln) (37 °C)
AGAAAGCAAUAUUACGCGCU,-0.789 ± 0.15,-1.26 ± 0.2
AGAAAGCAAUAUUACGCGUA,-1.71 ± 0.1,-0.388 ± 0.082
AGAAAGCAAUAUUACGGAAC,-3.04 ± 0.25,-1.84 ± 0.29
AGAAAGCAAUAUUACGGCCA,-0.632 ± 0.096,-0.181 ± 0.13
AGAAAGCAAUAUUACGGCGG,-0.593 ± 0.1,-0.586 ± 0.14
AGAAAGCAAUAUUACGGCUA,-0.324 ± 0.12,0.117 ± 0.13
AGAAAGCAAUAUUACGGGGA,-3.05 ± 0.17,-2.07 ± 0.17
AGAAAGCAAUAUUACGGUCC,-0.555 ± 0.12,0.317 ± 0.16
AGAAAGCAAUAUUACGUACA,-0.839 ± 0.075,-0.379 ± 0.1
AGAAAGCAAUAUUACGUACG,-1.26 ± 0.12,0.0255 ± 0.13
AGAAAGCAAUAUUACGUCAU,-1.55 ± 0.079,-0.954 ± 0.096
AGAAAGCAAUAUUACGUGAA,-2.39 ± 0.13,-1.96 ± 0.12
AGAAAGCAAUAUUACGUGAU,-2.17 ± 0.069,-1.25 ± 0.091
AGAAAGCAAUAUUACGUUCC,-2.59 ± 0.43,-1.23 ± 0.39
AGAAAGCAAUAUUACGUUUA,-1.96 ± 0.13,-1.04 ± 0.11
AGAAAGCAAUAUUACGUUUC,-3.82 ± 0.15,-2.09 ± 0.1
AGACAGCAAUAUUACGAAAA,–,-1.44 ± 0.29
AGACAGCAAUAUUACGAAAC,-3.76 ± 0.27,-2.66 ± 0.34
AGACAGCAAUAUUACGAAGC,–,-1.62 ± 0.28
AGACAGCAAUAUUACGAAGG,-3.88 ± 0.18,-2.75 ± 0.23
AGACAGCAAUAUUACGAAUC,–,-3.41 ± 0.47
AGACAGCAAUAUUACGAAUU,-2.74 ± 0.1,-1.27 ± 0.11
AGACAGCAAUAUUACGCAGC,-2.72 ± 0.23,-2.19 ± 0.39
AGACAGCAAUAUUACGCAUC,-2.73 ± 0.11,-2.18 ± 0.16
AGACAGCAAUAUUACGCAUU,-3.41 ± 0.12,-1.45 ± 0.087

Sequence,self-splicing fitness (ln) (30 °C),self-splicing fitness (ln) (37 °C)
AGACAGCAAUAUUACGCGAG,-1.22 ± 0.091,-0.818 ± 0.094
AGACAGCAAUAUUACGCGGA,-2.87 ± 0.14,-1.58 ± 0.12
AGACAGCAAUAUUACGCUUA,-0.813 ± 0.086,-0.083 ± 0.12
AGACAGCAAUAUUACGGAAG,-4.03 ± 0.3,-1.94 ± 0.18
AGACAGCAAUAUUACGGAGC,-3.94 ± 0.17,-2.93 ± 0.24
AGACAGCAAUAUUACGGCUA,-0.252 ± 0.08,-0.286 ± 0.083
AGACAGCAAUAUUACGGGCA,-1.18 ± 0.075,-0.503 ± 0.079
AGACAGCAAUAUUACGGUCC,-3.24 ± 0.27,-1.68 ± 0.28
AGACAGCAAUAUUACGGUUU,-3.25 ± 0.11,-1.32 ± 0.082
AGACAGCAAUAUUACGUACA,-0.745 ± 0.078,-0.238 ± 0.097
AGACAGCAAUAUUACGUACG,-1.22 ± 0.07,-0.121 ± 0.094
AGACAGCAAUAUUACGUCAA,-1.68 ± 0.1,-1.35 ± 0.09
AGACAGCAAUAUUACGUGCG,-0.833 ± 0.077,-0.653 ± 0.083
AGACAGCAAUAUUACGUGUG,-2 ± 0.063,-1.44 ± 0.072
AGAGAGCAAUAUUACGACGC,-2.54 ± 0.34,-0.3 ± 0.28
AGAGAGCAAUAUUACGAGGC,-2.09 ± 0.25,–
AGAGAGCAAUAUUACGAUUC,-3.41 ± 0.35,-1.24 ± 0.32
AGAGAGCAAUAUUACGCAGG,-2.58 ± 0.13,-3.21 ± 0.33
AGAGAGCAAUAUUACGCGCU,-1.89 ± 0.35,–
AGAGAGCAAUAUUACGCUGG,-3.07 ± 0.27,-2.4 ± 0.32
AGAGAGCAAUAUUACGGCCC,-1.82 ± 0.28,-1.71 ± 0.48
AGAGAGCAAUAUUACGGCUU,-1.65 ± 0.16,-1.15 ± 0.25
AGAGAGCAAUAUUACGGUCG,-3.33 ± 0.35,-1.63 ± 0.35
